B1: hu9F5VHv9/hu9F5VLv8_DIM18 (antibody, V domains shown)
VH: EVQLVQSGAEVKKPGATVKISCKASGFNIKDDYMNWVQQRPGKGLEWIGWIDPENGDTEYASKFQGRATMTADTSTNTAYMELSSLRSEDTAVYYCTTSNGWGQGTLVTVSS
VL: DIQMTQSPFSLPVTPGESASISCRSSKSLDHSNGITYLYWYGQKPGQSPQLLIYQGSNRASGVPNRFSSSGSGTDFTLKISRVEAEDVGVYYCAQNIELPLTFGQGTKLEIK
B2: hu9F5VHv9/hu9F5VLv8_DIM23 (antibody, V domains shown)
VH: B1 VH
VL: B1 VL with D30G, G42Q, G56E, R59G
B3: hu9F5VHv9/hu9F5VLv8_DIM22 (antibody, V domains shown)
VH: B1 VH
VL: B1 VL with D30S, G42Q, G56E
B4: hu9F5VHv9/hu9F5VLv8_DIM19 (antibody, V domains shown)
VH: B1 VH
VL: B1 VL with D30S, G42I, G56I
B5: hu9F5VHv9/hu9F5VLv8_DIM28 (antibody, V domains shown)
VH: B1 VH
VL: B1 VL with D30S, G42L
B6: hu9F5VHv9/hu9F5VLv8_DIM21 (antibody, V domains shown)
VH: B1 VH
VL: B1 VL with D30S, G42Q, G56I, R59G, I97L
B7: hu9F5VHv9/hu9F5VLv8_DIM25 (antibody, V domains shown)
VH: B1 VH
VL: B1 VL with D30G, G42I, G56E, I97G
B8: hu9F5VHv9/hu9F5VLv8_DIM26 (antibody, V domains shown)
VH: B1 VH
VL: B1 VL with D30I, G42I, G56E, I97L
B9: hu9F5VHv9/hu9F5VLv8_DIM30 (antibody, V domains shown)
VH: B1 VH
VL: B1 VL with D30S, G42Q, R59L
B10: hu9F5VHv9/hu9F5VLv8_DIM24 (antibody, V domains shown)
VH: B1 VH
VL: B1 VL with D30G, G42I, G56E
B11: hu9F5VHv9/hu9F5VLv8_DIM20 (antibody, V domains shown)
VH: B1 VH
VL: B1 VL with D30S, G42Q, G56I, R59G
B12: hu9F5VHv9/hu9F5VLv8_DIM27 (antibody, V domains shown)
VH: B1 VH
VL: B1 VL with D30L, G42Q
B13: hu9F5VHv9/hu9F5VLv8_DIM29 (antibody, V domains shown)
VH: B1 VH
VL: B1 VL with D30S, G42Q, G56M

Positions count from the first letter of the chain named.

The target in this assay is T1, recombinant human 4R0N tau (human, UniProt P10636 2-758).
T1 construct: also called recombinant 4R0N human tau; P10636-6
T1 sequence (P10636 other isoform, or with tags, fused parts or gaps limits assumed): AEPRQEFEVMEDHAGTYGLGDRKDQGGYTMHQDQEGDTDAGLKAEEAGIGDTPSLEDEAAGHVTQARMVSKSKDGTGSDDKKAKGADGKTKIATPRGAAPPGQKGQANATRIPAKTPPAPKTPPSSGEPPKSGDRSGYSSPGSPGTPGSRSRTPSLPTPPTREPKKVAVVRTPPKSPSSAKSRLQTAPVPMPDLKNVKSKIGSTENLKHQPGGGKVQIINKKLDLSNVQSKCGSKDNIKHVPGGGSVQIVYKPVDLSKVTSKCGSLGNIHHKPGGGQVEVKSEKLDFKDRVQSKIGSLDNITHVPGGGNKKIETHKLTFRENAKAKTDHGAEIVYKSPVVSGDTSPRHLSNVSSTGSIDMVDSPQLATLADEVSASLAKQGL
Kind of assay: SPR Biacore T200; antibody captured by anti-human Fc; tau as analyte; global 1:1 fit. The protocol: Target binding analysis was performed using a Biacore T200 to compare the binding affinity of humanized 9F5 variants to recombinant human 4R0N tau. Anti-Human Fc antibody was immobilized on sensor chip CM3 via amine coupling, and humanized 9F5 variants were captured to equivalent levels. Various concentrations of recombinant 4R0N human tau (ranging from 0.02 nM to 12.5 nM) were passed over the captured ligand at 50 μL/min in running buffer (HBS+0.05% P-20, 1 mg/mL BSA) for 180 seconds association/420 seconds dissociation as a single cycle. Data was blank subtracted to both an irrelevant sensor not containing antibody and 0 nM analyte concentration. Analysis was performed using a global 1:1 fit with Biacore Evaluation software.
As to B1, the Kd came to 0.0447 nM, the koff was found to be 9.39e-05 s⁻¹ and the kon turned out to be 2.1e+06 M⁻¹ s⁻¹.
For B2, the Kd is 1.24 nM, the koff stood at 0.0832 s⁻¹ and the kon was found to be 6.69e+07 M⁻¹ s⁻¹.
Consider B3, for which the Kd is 0.39 nM, the koff was determined as 0.000878 s⁻¹ and the kon amounted to 2.25e+06 M⁻¹ s⁻¹.
The like results for B4 were, in that order, 0.597 nM, 0.00215 s⁻¹ and 3.61e+06 M⁻¹ s⁻¹.
For B5, in that order: 0.0692 nM, 0.000217 s⁻¹ and 3.13e+06 M⁻¹ s⁻¹.
The like results for B6 were, in that order, 858 nM, 1.12 s⁻¹ and 1.31e+06 M⁻¹ s⁻¹.
As for B7, the Kd is 3.15 nM, the koff is 0.0409 s⁻¹ and the kon was 1.3e+07 M⁻¹ s⁻¹.
The like results for B8 were, in that order, 1.04 nM, 0.004 s⁻¹ and 3.84e+06 M⁻¹ s⁻¹.
The like results for B9 were, in that order, 0.438 nM, 0.000447 s⁻¹ and 1.02e+06 M⁻¹ s⁻¹.
The like results for B10 were, in that order, 0.454 nM, 0.000993 s⁻¹ and 2.19e+06 M⁻¹ s⁻¹.
B11: the Kd is 12.3 nM, the koff was 0.0694 s⁻¹ and the kon was determined as 5.64e+06 M⁻¹ s⁻¹.
Regarding B12, the Kd was 0.16 nM, the koff turned out to be 0.000385 s⁻¹ and the kon was determined as 2.41e+06 M⁻¹ s⁻¹.
For the molecule B13, the Kd turned out to be 0.27 nM, the koff was 0.000534 s⁻¹ and the kon was 1.98e+06 M⁻¹ s⁻¹.

The record behind these values is patent US20220275067A1 (PROTHENA BIOSCIENCES, published 2022).
